A protein production outcome set (Wang et al. 2014)

Assay: label from the status in PepcDB records

Row | Sequence | protein production
1 | MTEMQSLRHRLIRQPGPVSGECWIAFFDGVAHPVLIKNAQGQVIFANRAACDLLGRDRSGLAGGAEHELVAGTQAEQIASFDAEAMRRGSVSAEQEMPGPRGVRRFLVSRRPAGEHLVVTFFEITDLRETEGVLRQREAHLRNLLELHPVAPFSFTADGVLSDLSDRLVAITGLPAGTRHVDAWWAAMHPCDRRDLRRAWIRSVRGGQSFDAEHRLQMPDGAYRWFRARIVARPRDQDQRVDRWFGIIEDVHERRTTVEQLRESEARFRAFADDAPVMIWVTDTEGRNVFVSRSWLGATGQSLDEALGTGWIDAVHPDDRDATAAITREAMRRRIAYTNEFRIRRKDGGWCWVIDVGHPRLLADGTFIGYIGCCVDISARRQAEDDRVMAQLQVFHMARHDMLTGLPNRHYFGDCYQEAVASLAPERSVAVLMLDLDGFKTVNDTRGHPVGDQVLCEVANRLRTSVRSTDTVARLGGDEFAVIQTPIRSEQEACDLARRLIAAISKPFDLEGAVPEVGASVGIAFARGHGDSAEEIMRYADVALYAAKQAGRGTFRVFDEATDTHLQSRQKMKAALRAALGLGELSVFYQPLIGLRDGQVTACEALMRWHRKGAGWITPDQFIPLAEEAGLIGDMGDWVLHEACAQAARWPDSVSVAVNLSPLQFHGGALVDQVASALRASGLPPERLQLEITESVLLDPTDRNIGVLQDLRALGAKIVMDDFGTGYSSLGYLRSFPFDKIKVDRSFIRDLPDAREALAILKAVAGLGRSLDMRTTVEGVETQAQLDCAIAEGVDEAQGYFFSRPLPAPGIASFISGCLPKRRIQPATGDAAT | failed
2 | MTENELLTRCGGKCELCGSDVELAIYDLPASDGHENEIMICENCSSQIAAPDTMDMNHWRCLNDSMWSQVPAVQVMSYRMLKRLSGESWAQDLLDMLYLEDDLRAWGDAEAAAASDDTPPTLDSNGAVLNAGDTVVIIKDLNVKGTSFVAKRGTAVRNIALTNNPEHIEGRVNGTRIVILTCFVKKSLEHHHHHH | not failed
3 | MTENTKISLIVQEADYNDVGRGYAKINNDVMAKLGVESGDFIKITGKRMGAAKVMRSSVSGSGGIAIDGDIRRSAGAGIGDTVTVEKVVPKTAAKITLQPISQSIRLDSRALEQTIQSKFAGRPITKGQIMTFGFQTKSEDPFFSGWGGFSNYNTEYVDFAVSDVSPGDVAIIGSETTVNYKDSVYKGEDAPKGKSAGNIHYEDIGGLGRELSLVREMIEYPLRHPEVFEKLGIEPPKGVLLYGPPGTGKTLIARAVANEAGAYFDTISGPEIISKYYGDSEEKLREIFEKAEENAPSIIFIDEIDSIAPKREESKGEVERRVVAQLLSLMDGLKSRGKVIVIAATNLPDSIDPALRRGGRFDREIEIGVPDKDGRREILQIHARNVPLSENVKLEKYANTTHGFVGADLALMVKEAAMHALRRAFPGMNPDEEISAEKLENLKVTAEDFESALKMVQPSAMREVLVEVPDIHWADVGGLDSVKEELQQAVEWPLKYREVYKQFATKSPKGFLMFGPPGTGKTLLAKAVANESECNFISVKGPELMSKWVGESEKGIREIFRKARLASPSIIFFDEIDSIVPRRGSYEGSSHVTESVVSQFLTELDGLEELKNVVVIGATNRPDMIDPALLRPGRLEQHIFVPPPDREGRKQILDVYIKDISSMLAEDVNLDELVDKTEGFVGADIEALVREAKMVAIREFVKVMAGHDAAEITLAVSSVKVFGRHFDAALKRVRPSLDKEGRRSAERGSWQYRFNEEERKTLEKGISVVETAEYKDAGSTPELRELDELLMAHQKDFSRIKEIIKTADA | failed
4 | MTEQFVIIILLIALGYFLKRMNYLKATDSQVLSTLVLNVTLPSLVIVNLNSAKLDVSFSILPIMMIIYGIVAKIIVIWFFRKYDNHMRGSVGMMTGSMNIGLFAYPLVEAIWPSKGMIYFGMVDIGGAIIMFGITYFVGSYFSEGSDQFNFKFLGKKLVQSVPLVTYMIMFGLNMSHIHIWQPAIDFFSVLSKANMPLSMILLGVMLNFSIEREYLPVTIKYLCLHYGLGMLAGTLVHFLLPVSDDMIKTTLLITWLLPVGVAIIPYSIQFKYKTLPFVGMVTNLTIIISIIILYIYQAVFV | failed
5 | MTESESASGMDGVVLGGTASGVGKTVATLAVARALADAGHDVQPAKAGPDFIDPSHHEPVVGTPSRSLDPWLSGTDGMRRTYHQGDGDVCVVEGMMGLYDGSVASTARVASELDLPVVLVVDASAGMQSVAATALGFQAYAAEASVDVDVAGVLAQRAHGGRHADGIRDALPDSLTYFGRVPPRDDLDVPDRHLGLHMGSEAAIDDDAVDAAAAHVAAKRIADVARTPPRPPAHDPAPDTGQTVAVADDAAFCFAYPATRERLRERADVVTFSPVAGDDLPACDGVYLPGGYPELHTDALADAPALDTLGARAADGLPVLGECGGLMALAESLTTTDGDTAEMAGVLPADVRMQDRYQALDHVELRATGDTLTAGSGATLRGHEFHYSAATVASDARFAFAVERGDGIDGDHDGLTEYRTLGTYAHVHPESTAFDAFLDAL | failed
6 | MTESIVCHKCQEAITKRMITALGKTWHPEHFLCHHCDEQILDATFNVQSGEPVCNKCFVERYTYTCAGCKKPILEKTICAMGESWHEDCFCCGGACKKPLANQTFYERDGKPYCKKDYEDLFAARCAKCEKPITDSAVLAMNVKWHRDCFRCNKCENPITSQTFTIDGDKPVCPACNC | failed
7 | MTETESKWDEKLKRFFKDYYWNEILQLANEYPDQRSLAVDFTDIEKFDRDLSREFLEHPGELISAAEAALKEIDLPVEKNLEQAHVRVIKIPNRIPIRELRSKHLTRFVAIEGMIRKATEVRPRITKAAFQCLRCGHLTIVEQNSFKFEEPFAGCEEETCGKKGPFKVSIEDSTFIDAQKLQIQESPENLKGGSQPQSLEVDSEDDLTGNVTPGDRVIINGVLKSRQRTLKDGKSTFYDLILEANSIERLDKDYDELEISAEEEEQILELSRDPAIYEKIISSIAPSIYGYEDIKEALALQLFSGVVKNLPDGSRTRGDIHMMLVGDPGIAKSQLLRYVVKLSPRGVFASGRSASASGLTAAAVKDDMNDGRWTIEGGALVMADMGVAAVDEMDKMRTEDKSALHEAMEQQTISIAKAGIIATLKSRCALLGAANPKYGRFDRYEGLADQINMPPALLSRFDLIFVLLDTPNHSLDSRIANHILQSHYAGELSEQRQKLPGSTISEEFVDAEMEIIEPVIAPEFMRKYIAFARKNVYPVMEEDTRHHLINFYTDLRRSGEGKNTPVPVTARQLEALVRLSEASARVRLSNIVTLEDAKRTIRIVMNCLKNVGVDPETGALDADILASGTSMSQRNKIKLLKDIIKKVSDRHPGSKAPLEEVYAEAESEHGIDRGHAEEYIKKMKQRGDILSPDQTHIRLIN | failed
8 | MTETFNPDLDLKISRIIKAPRRLVWNAWTDKTSLEQWWVPHPGQCRVDKMELHPGGAFETRYSEDGREFGQHVSGCFLAVDHEQRLIFTDALTAGFRPSAQPFLTAVMTFRDHPDGMEYEAYAMHNNLADRDRHAEMGFFDGWNTVAEQLAQLVEKQAAH | failed
9 | MTETIKCIGCGVEIQTEDKNEVGYAPASSLEKEQVICQRCFRLKHYNEIQDVSLTDDDFLRILNGIGKSDALVVKIVDIFDFNGSWLPGLHRFVGNNKVLLVGNKADLIPKSVKHDKVKHWMRYSAKQLGLKPEDVFLISAAKGQGIAELADAIEYYRGGKDVYVVGCTNVGKSTFINRMIKEFSDETENVITTSHFPGTTLDLIDIPLDEESSLYDTPGIINHHQMAHYVGKQSLKLITPTKEIKPMVFQLNEEQTLFFSGLARFDYVSGGRRAFTCHFSNRLTIHRTKLEKADELYKNHAGDLLSPPTPEELENMPELVKYEFNIREPKTDVVFSGLGWVTVNEPGAKIVAHVPKGVSVSLRKSLI | not failed
10 | MTETIPVFDGHNDFLLRLLRNPANRETIWLKGDGTGHLDLPRMKEGGFAGGFFAIYVPSPQAHDAAHFEAMMDAPPFELPLPPMIRAEQAQPVALAMAGHLLWMERAARGRFKVCRTAAEVRSCHADGIVSGIMHMEGAEAIGADLDALHLFHSLGLRSLGPVWSRPTVFGHGVPFRFPGSPDTGEGLTEAGRRLVAECNRLKIMLDLSHLNEKGFDDVARLSDAPLVATHSNAHAVTPSTRNLTDRQLAMIRESRGMVGLNFATSFLREDGRRSAEMGWEPVLRHLDHLIDRLGEDHVGMGSDFDGATIPQGIADVTGLPALQAAMRAHGYDEPLMRKLCHENWYGLLERSWG | not failed
11 | MTETNHDQAEYWGKSASGMKWLTFEEQIAASFAPVVDLLLERAALKPGQRVLDIGCGLGDVTLAAAQAVGPGGHVLGVDISAPFLERAGLRASGMGNVGFALADAQSEPFAPAERDAVLSRFGMMFFSDTVAAFANIARALKPGGRMTFAAWGPLAGNPWFYLPHRAATDRLGQMPKVDRNAPGPLAFHDIDRVTGLMAEAGLADIEAQAVDLNLTPPGGLEGAAALCTRLGPAARVLAHFNGSEADEAAIRDAVSAALEPYVEGGEVLMPATINLFQARRAGTA | failed
12 | MTETYNKEQQEAMKKMMSFQMLYMLIMLGSLFIVITPSSRDAVGNLLNVVLIPTIGFGYRYPLLSIILTGVIIGVILSIPRYFFTDWVKMGKMQNTMKAFNEAIRAAYRERDMKKINKLNSMRMQMSMDQYQLSMNTMKPLLVISVLTILFYAWLFVFVGKIPYNYIAFPWDFNINISTAHFWIMPYWIFMYFLTEIVVSYFITMIMKYIDFTLRLRRISRETSS | failed
13 | MTEVRPGAVASASLWERDAEIAALVEAVDALRADSPSSGSGSLLVFSGEAGIGKTALLGETRRIAESRGCTVWSARGGETVTSVPFNVVRQLLQPALVALMPDEAREYLGDWYDIAGPALGITEPGDRQADPQGVCDGLVAAVRRLARREWPLVLLIDDAHWADQETLHWLAAFAERLHDLSVLVVVARRPGEATEESTRHLDVIAAAAGPVATLSALTPEATAGLTRATVGVHADAPFCREVWAVTGGNPYETVELLAKVQDSELEPSESSAAELRALNRSARGRGLVARLEGLGIDATRFAWAAAILGTGISLDLAAQLAGMQREEALHCADLLGAARILTEPAPVNGRQPDGDLEFVHPLIASAVYNSIPDALRTAMHGVAAQVVTDSGLGAAAASRHLLEVHPDDDAELVDQMREAAREHLAVGAPDAARRCLERALLEPPLSDVHARVLYELGCATLLTSPATTIDYLQAALAMPGLDGDVRVDAVFRLSQALLHNNQVEEAVRTVDAEAARLEPGPARMRLQAVHYMWECVHAGEDISPTSVRALAELAKKCTGKDNSERALLILRGFDAMTRGENAEEVAELCDRALVNGRLAPGLGWTDTEWGIELLMMLASAYAYADRLDRAEALYNEALRAYEGAGWSGGHLALAHSYVGLGHRRRGRLTEAEKYLRESLRIAERVGRGLPLYWSATCGLVDTLLARGHVEEAAEIAERYGFGPPYPTTIVLPDTRSVRGRLLLALGRTEEGVNELEAAEKAATARGHHNTVLAPWALDLARALAVDDPRRAAELAATARRQAERFGTDTAIGEALRCAAALETGQRAASLYKQAVTYLEASPCSYEHAAARVEYGIATRSATELTRGLTLARSCGADGLVAQAQEALDNGPGLR | failed
14 | MTEVSFFLSDNNWYFVVVINNKDFCMKCHRLNEVMELLHPVWEENSDLNLVQLLQKLADEAGFKGQLSDLTDDILIYHLKMRGSAPTEVIPGLKKDYEEDFKTAILRARGVIKD | failed
15 | MTFALGQRWISDTESDLGLGTVVAMDARTVTLMFAASEENRVYARNDAPVTRVTFNVGDVIDCQEGWSLKVEEVLEDEGLYTYFGTREDTQETAVVLREIFLSNQIRFNKPQDKLYAGQIDRMDNFVLRY | failed
16 | MTFANTASINHYWRTHPALFTAMLLVVVLITSYFIDVFSGSAIAVLLILQLAVVVVALQCSANYAYFVAVFGAVSFNFLFTAPRYSLQMLNVEDIVNLTVFLLAALTSSKLAKHYRRQQDALEQAQLRNSILLSVSHDLRTPLATIIGTLTTLKEYQPKLSPAQTEELIDSAAAESHRLHQYIENLLQANKLQHGALKFSLDEANIREVLQRTIARFQTEQPRIQIQSEPELPSLMICSSLIEQAIFNVLDNALHYSPATQPVTVSLYRHQHMLRIDIQDQGKGIAPSQTGAIFELFYRQHPTTDGGAGLGLPVAKGIITAHNGTISAEKVAHGSLIRIALPITKESA | failed
